Blank lines part the entries; values can stand above or below the molecule they belong to.
Legend:
3×MBT domain of L3MBTL1 = assay: Triple SILAC pull-down, 3xMBT/3xMBTD355N ratio (cytoplasmic, nuclear and chromatin fractions of 293T cells); assay type: binding, human; conditions: SILAC ratio; for Protein Ratios 3xMBT/D355N: pull-down by 3xMBT vs 3xMBTD355N, 293T cells;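 as to all read-outs here: proteins quantified with MaxQuant, requiring at least two unique peptides and quantification in both label directions, normalized to the mean of proteins from a digested loading control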
G9a and GLP = biological target: T1, G9a and GLP (Homo sapiens, UniProt Q96KQ7+Q9H9B1); assay: Triple SILAC pull-down after UNC0638 treatment of 293T cells, DMSO/UNC0638 ratio of protein captured by 3×MBT; assay type: cell-based; design: endogenous in cells; host or cells: HEK 293T; conditions: for Protein Ratios DMSO/UNC0638: SILAC ratio of protein captured by 3xMBT, 293T cells treated 24 hours with UNC0638 at 2.5 μM or DMSO;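 as to all read-outs here: mass spectrometry (Q-Exactive) SILAC quantitation, DMSO/UNC0638 ratio computed after subtracting 3×MBTD355N mutant pull-down background, only proteins with at least twofold 3×MBT over mutant signal considered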
T1 sequence (Q96KQ7 2-1210 limits assumed): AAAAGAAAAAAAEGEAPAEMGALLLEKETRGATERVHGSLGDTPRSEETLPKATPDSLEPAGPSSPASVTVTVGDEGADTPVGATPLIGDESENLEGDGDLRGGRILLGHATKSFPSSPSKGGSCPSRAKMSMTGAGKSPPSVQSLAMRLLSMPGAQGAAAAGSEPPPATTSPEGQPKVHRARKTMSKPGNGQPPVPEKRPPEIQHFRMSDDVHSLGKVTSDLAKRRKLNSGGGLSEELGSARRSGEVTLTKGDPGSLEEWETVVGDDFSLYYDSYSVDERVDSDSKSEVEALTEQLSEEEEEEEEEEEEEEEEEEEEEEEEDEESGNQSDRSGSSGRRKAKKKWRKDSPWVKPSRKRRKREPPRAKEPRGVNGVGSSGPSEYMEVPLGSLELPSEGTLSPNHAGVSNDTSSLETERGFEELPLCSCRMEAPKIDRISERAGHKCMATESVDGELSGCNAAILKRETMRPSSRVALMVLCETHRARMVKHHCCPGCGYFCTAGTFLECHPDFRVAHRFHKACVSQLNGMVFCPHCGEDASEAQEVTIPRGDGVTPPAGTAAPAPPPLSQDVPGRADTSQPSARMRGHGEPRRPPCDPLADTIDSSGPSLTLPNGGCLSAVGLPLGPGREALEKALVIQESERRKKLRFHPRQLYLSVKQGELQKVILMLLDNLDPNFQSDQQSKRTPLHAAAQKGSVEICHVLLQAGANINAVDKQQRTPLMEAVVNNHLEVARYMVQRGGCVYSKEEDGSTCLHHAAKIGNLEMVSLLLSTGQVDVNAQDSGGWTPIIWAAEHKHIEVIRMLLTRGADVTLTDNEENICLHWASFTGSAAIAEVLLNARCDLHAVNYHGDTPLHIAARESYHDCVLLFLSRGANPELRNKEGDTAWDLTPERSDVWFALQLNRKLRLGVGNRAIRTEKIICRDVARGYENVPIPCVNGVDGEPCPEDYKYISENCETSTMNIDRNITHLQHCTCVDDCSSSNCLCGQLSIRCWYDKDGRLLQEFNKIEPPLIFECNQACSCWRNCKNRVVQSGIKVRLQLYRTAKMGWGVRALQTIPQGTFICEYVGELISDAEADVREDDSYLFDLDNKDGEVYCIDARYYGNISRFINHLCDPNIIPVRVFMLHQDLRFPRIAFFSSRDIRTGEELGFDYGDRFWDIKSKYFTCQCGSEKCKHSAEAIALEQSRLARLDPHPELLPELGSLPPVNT
T1 sequence (Q9H9B1 2-1298 limits assumed): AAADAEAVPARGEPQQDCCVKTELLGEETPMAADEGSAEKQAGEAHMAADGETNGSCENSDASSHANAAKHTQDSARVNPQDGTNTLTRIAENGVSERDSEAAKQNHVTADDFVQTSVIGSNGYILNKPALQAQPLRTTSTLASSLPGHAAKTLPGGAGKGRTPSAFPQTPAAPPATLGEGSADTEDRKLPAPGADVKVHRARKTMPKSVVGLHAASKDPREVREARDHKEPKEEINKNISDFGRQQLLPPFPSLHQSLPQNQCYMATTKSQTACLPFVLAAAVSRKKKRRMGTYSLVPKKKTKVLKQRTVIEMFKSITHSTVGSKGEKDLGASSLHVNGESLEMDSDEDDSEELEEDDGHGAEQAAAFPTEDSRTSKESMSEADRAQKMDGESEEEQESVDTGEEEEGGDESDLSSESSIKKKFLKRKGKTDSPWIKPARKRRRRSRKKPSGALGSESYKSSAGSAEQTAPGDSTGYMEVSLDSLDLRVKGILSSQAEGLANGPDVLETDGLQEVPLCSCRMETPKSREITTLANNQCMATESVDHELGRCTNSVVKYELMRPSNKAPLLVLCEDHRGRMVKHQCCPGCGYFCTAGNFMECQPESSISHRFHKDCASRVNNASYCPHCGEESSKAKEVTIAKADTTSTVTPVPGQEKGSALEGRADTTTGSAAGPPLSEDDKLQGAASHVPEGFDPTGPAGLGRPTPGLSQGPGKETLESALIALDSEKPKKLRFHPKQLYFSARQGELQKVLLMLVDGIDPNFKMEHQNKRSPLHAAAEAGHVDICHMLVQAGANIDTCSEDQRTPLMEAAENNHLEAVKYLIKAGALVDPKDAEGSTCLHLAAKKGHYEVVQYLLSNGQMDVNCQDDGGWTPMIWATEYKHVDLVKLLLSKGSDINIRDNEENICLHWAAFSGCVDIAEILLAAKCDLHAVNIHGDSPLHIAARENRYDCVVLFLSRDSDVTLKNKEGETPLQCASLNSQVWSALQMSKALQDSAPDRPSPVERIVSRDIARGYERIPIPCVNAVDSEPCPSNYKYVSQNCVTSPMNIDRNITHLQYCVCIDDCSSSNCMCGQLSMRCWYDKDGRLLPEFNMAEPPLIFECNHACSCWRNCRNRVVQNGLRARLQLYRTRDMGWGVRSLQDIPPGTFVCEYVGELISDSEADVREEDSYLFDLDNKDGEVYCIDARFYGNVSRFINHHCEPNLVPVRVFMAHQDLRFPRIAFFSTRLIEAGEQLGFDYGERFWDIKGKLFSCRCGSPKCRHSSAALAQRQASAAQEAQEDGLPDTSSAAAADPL

Relative to UNC0638 UNC Heavy (G9a and GLP; SILAC ratio DMSO/UNC0638 of protein pulled down with 3xMBT, UNC0638 in heavy SILAC media): 1.65 log base 2 | Relative to UNC0638 UNC Light (G9a and GLP; SILAC ratio DMSO/UNC0638 of protein pulled down with 3xMBT, UNC0638 in light SILAC media): 0.26 log base 2 | Protein Ratios DMSO/UNC0638 (G9a and GLP): 1.9 | Relative to UNC0638 Average (G9a and GLP; average of UNC Light and UNC Heavy experiments): 0.96 log base 2 | Candidate G9a/GLP target (G9a and GLP; reduced association with 3xMBT after UNC0638 treatment): ✓
B1: RNA-binding protein 15 (protein)
chain: MRTAGRDPVPRRSPRWRRAVPLCETSAGRRVTQLRGDDLRRPATMKGKERSPVKAKRSRGGEDSTSRGERSKKLGGSGGSNGSSSGKTDSGGGSRRSLHLDKSSSRGGSREYDTGGGSSSSRLHSYSSPSTKNSSGGGESRSSSRGGGGESRSSGAASSAPGGGDGAEYKTLKISELGSQLSDEAVEDGLFHEFKRFGDVSVKISHLSGSGSGDERVAFVNFRRPEDARAAKHARGRLVLYDRPLKIEAVYVSRRRSRSPLDKDTYPPSASVVGASVGGHRHPPGGGGGQRSLSPGGAALGYRDYRLQQLALGRLPPPPPPPLPRDLERERDYPFYERVRPAYSLEPRVGAGAGAAPFREVDEISPEDDQRANRTLFLGNLDITVTESDLRRAFDRFGVITEVDIKRPSRGQTSTYGFLKFENLDMSHRAKLAMSGKIIIRNPIKIGYGKATPTTRLWVGGLGPWVPLAALAREFDRFGTIRTIDYRKGDSWAYIQYESLDAAHAAWTHMRGFPLGGPDRRLRVDFADTEHRYQQQYLQPLPLTHYELVTDAFGHRAPDPLRGARDRTPPLLYRDRDRDLYPDSDWVPPPPPVRERSTRTAATSVPAYEPLDSLDRRRDGWSLDRDRGDRDLPSSRDQPRKRRLPEESGGRHLDRSPESDRPRKRHCAPSPDRSPELSSSRDRYNSDNDRSSRLLLERPSPIRDRRGSLEKSQGDKRDRKNSASAERDRKHRTTAPTEGKSPLKKEDRSDGSAPSTSTASSKLKSPSQKQDGGTAPVASASPKLCLAWQGMLLLKNSNFPSNMHLLQGDLQVASSLLVEGSTGGKVAQLKITQRLRLDQPKLDEVTRRIKVAGPNGYAILLAVPGSSDSRSSSSSAASDTATSTQRPLRNLVSYLKQKQAAGVISLPVGGNKDKENTGVLHAFPPCEFSQQFLDSPAKALAKSEEDYLVMIIVRGFGFQIGVRYENKKRENLALTLL
3xMBT/D355N UNC Heavy (3×MBT domain of L3MBTL1; pull-down 3xMBT vs 3xMBTD355N, experiment with UNC0638 in heavy SILAC media): 2.14 log base 2 | 3xMBT/D355N UNC Light (3×MBT domain of L3MBTL1; pull-down 3xMBT vs 3xMBTD355N, experiment with UNC0638 in light SILAC media): 4.48 log base 2 | Protein Ratios 3xMBT/D355N (3×MBT domain of L3MBTL1): 9.9

Protein Ratios DMSO/UNC0638 (G9a and GLP): 1.6
B2: Apoptosis inhibitor 5 (protein, UniProt Q9BZZ5 2-524, looked up)
Apoptosis inhibitor 5: PTVEELYRNYGILADATEQVGQHKDAYQVILDGVKGGTKEKRLAAQFIPKFFKHFPELADSAINAQLDLCEDEDVSIRRQAIKELPQFATGENLPRVADILTQLLQTDDSAEFNLVNNALLSIFKMDAKGTLGGLFSQILQGEDIVRERAIKFLSTKLKTLPDEVLTKEVEELILTESKKVLEDVTGEEFVLFMKILSGLKSLQTVSGRQQLVELVAEQADLEQTFNPSDPDCVDRLLQCTRQAVPLFSKNVHSTRFVTYFCEQVLPNLGTLTTPVEGLDIQLEVLKLLAEMSSFCGDMEKLETNLRKLFDKLLEYMPLPPEEAENGENAGNEEPKLQFSYVECLLYSFHQLGRKLPDFLTAKLNAEKLKDFKIRLQYFARGLQVYIRQLRLALQGKTGEALKTEENKIKVVALKITNNINVLIKDLFHIPPSYKSTVTLSWKPVQKVEIGQKRASEDTTSGSPPKKSSAGPKRDARQIYNPPSGKYSSNLGNFNYEQRGAFRGSRGGRGWGTRGNRSRGRLY
Protein Ratios 3xMBT/D355N (3×MBT domain of L3MBTL1): 8.6

Protein Ratios DMSO/UNC0638 (G9a and GLP): 1.6
B3: Hematological and neurological-expressed 1-like protein (protein, UniProt Q9H910 1-190, looked up)
Jupiter microtubule …: MFQVPDSEGGRAGSRAMKPPGGESSNLFGSPEEATPSSRPNRMASNIFGPTEEPQNIPKRTNPPGGKGSGIFDESTPVQTRQHLNPPGGKTSDIFGSPVTATSRLAHPNKPKDHVFLCEGEEPKSDLKAARSIPAGAEPGEKGSARKAGPAKEQEPMPTVDSHEPRLGPRPRSHNKVLNPPGGKSSISFY
Protein Ratios 3xMBT/D355N (3×MBT domain of L3MBTL1): 8.9
